Test results reported in PMC6237851, “A tumor-targeted trimeric 4-1BB-agonistic antibody induces potent anti-tumor immunity without systemic toxicity” (Nature Communications, 2018).

Molecular target: the molecule itself
Experiment: SDS-PAGE, reducing against non-reducing; m4-1BBL alone; about 40 kDa in reducing and about 70 kDa in non-reducing conditions (Supplementary Figure 3a)

B1: recombinant soluble mouse 4-1BBL (ligand, UniProt P41274 104-309, looked up)
chain: RTEPRPALTITTSPNLGTRENNADQVTPVSHIGCPNTTQQGSPVFAKLLAKNQASLCNTTLNWHSQDGAGSSYLSQGLRYEEDKKELVVDSPGLYYVFLELKLSPTFTNTGHKVQGWVSLVLQAKPQVDDFDNLALTVELFPCSMENKLVDRSWSQLLLLKAGHRLSVGLRAYLHGAQDAYRDWELSYPNTTSFGLFLVKPDNPWE
notes: 4-1BB ligand (4-1BBL, TNFSF9), mouse, recombinant soluble form; For the RICS imaging it was labelled with CF488A (Mix-n-Stain kit); also called m4-1BBL; 4-1BB-Ligand; source: bought: Biolegend (cat#754402)
stoichiometry N: 3
